Reference: the domain aggregation screens of Martell et al. (2025)

Experiment: soluble fraction after stress (log2 fold change); higher = more stays soluble; pooled small domains, quantitative proteomics
Settings: stress: 75 degC
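Also: 20 min heating vs room temperature control held 20 min.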

Sequence | soluble fraction (log2)
HMDDPISSMVNRIRLAFGLSVTDLAAVLGVERPTIYSWLKDGSTPAPARLTRVRQVLSLADTW | -0.729
HMDDPITVAYRETEDAIAQVQREGFPVEMPPANSYIRRIQHELAGRFNLDSESYGDEPERRVRIRPQQ | -0.107
HMDDPTVILFDPKNGQRKIVKWKAGLTLYSARRSAGISSAAEATIQRAGKSLSGRTATALEPGDVIRW | -1.74
HMDDSSLFGRHTGIGFIVDDIDSGYQTLLAKGVSFEMPPTEQPWGGILALMKDPDGNIFYLD | -0.0389
HMDDTRLLSEIGLSQRVLNALRARGIERVGQVLAMRPDQLLGIRNFGPRALQELRERLQENGYTEGPLFSG | 0.379
HMDDVIDVYATYDVSPTNQISNIKLYSDAAHANPVTGEAGKSYNDITEGHPGYQFRWSGTTWVPI | -1.04
HMDDVIEVEGKVVEVLPNTKFIVELANSHKITAHISGKLRMNYIRIMKGDNVTVEMSPYDLTKGRIIWRS | -0.165
HMDDVVVLPFTAEFARMSSDDFVREILVGKIGMKRFVVGYNHRFGSGQQGDFASLQRMQGELGFVAVRVG | 0.368
HMDDVYMVPVKDIAINDLKQEFEKLGIPNIQNTIPDKDLNFFIVRKDDLALVNYAIEKTMER | 0.0193
HMDEAETELIRRMVSEHPPTTKRERDIVQMRLRGYLFVEIGEAYGISFQRAAQIYNAAVEKIKEYWD | -0.242
HMDEEQIASRRALIMRAAREIMETQGMEALSIRKIAAMIQQTPGIIYHYFSGKEELMLAVVQEGYH | -0.00144
HMDEFAGSAKPLADGAAPAGYDVKGNKDSMKYHEPGGRWYDATVAEVWFKTAADAEAAGFVKAGA | 0.167
HMDEFHLSERERQILNLLVLGHTYKHIASDLNIAYATVNKHVSNVYAKLRVQSASEAVALAIRKGL | -0.992
HMDEFTIILEDAGSQKIAVIKEVRVLNSSLGLKEAKDLVDATPATIMEKADKATADKAKAAFEAAGAKVTI | -0.257
HMDEIDYSKYSITTSNRIINIDGVQSKVELFDVSGRSIQSTMVTGKFSSRPLNAGFYIIHVDGYSVKVSV | -1.19
HMDELIKQVANYIINNRATINETAGAFGKSVSSIKKYINDADKLQRIDFELYQKVKEVQKIVELNGQI | -0.396
HMDEMEFQKYVDQNLKQKGISLTAEAKAELLLRLGGDTMLLHSAIEKLDLYGEKNLNLNDIKHLVSLNSDV | 0.254
HMDENMQRYNTMEEIKKEFPYAEDTVRKLIAMGAIRGGGKVDANGDPADMDLSRDMLRMMVFNDRAGAYG | 0.524
HMDEPGTGFKWREDVLLRVMEANGIDTSHRDDFVRHAVKFDNDDNLYLKKAEIEDAAAAWVSEHS | 0.161
HMDERLAKLTPQERKILDLIAEGATNRQIGTELHLAEKTVKNYVSNMLMKLGMSRRTEAAVFAVKASIN | -1.9
HMDERLLRLYERELQFLREGADEFAQAYPKVAGHLGLNSQSMGDPFIERLLEGLGFLTARIQLQLESEF | -0.47
HMDEWFPVNDDYKFMVGDEVRTPDGLVKVVATHNDSATFYGKIITPIHDDVLKGETYEYRSYEAQVLA | -0.331
HMDEWKRKELWDAIARLPKIQRMVVTMRTTENLPYKEIAKIMNISENSAKVNYHHAVEALKIFF | -2.84
HMDEYGEVQALQRAGQTSEALARADRHIAAHPNDPQMRFVKANLLSAGGRAGEAETLLVQLTRD | -0.0543
HMDFDLIAIFEEQFARALSPIEINIIKEWKNSNYSDDMIVKALKEAVKSQVFNFRYIERILINWSQNG | -1.9
HMDFDVELTSAGTAKVKVIKAVREATGLGLKEAKDLVDNAPSIVKEGLDEAAANDLKAALEETGASVTL | 0.0189

Sequence | soluble fraction (log2)
HMDFEEGAVKWFNTKKGYGFITRDQGDDIFVHFRNIKAQSRRSLTDGERVTFVVTEGDKGLQADHVSPV | -0.411
HMDFGHWAAHKLEQMSEYRLRHGEAVAIGIALDVLYSVRQGLLARPAAERILSLLERLGFTLFDPELKS | 0.224
HMDFLKSVDLSKYSKVESLILSHLSKGDFDIDDFIRSFSLGTDEVTRAIVSLEIEGIILRKGNRIFRKKS | -1.38
HMDFMNSEIKKIVEDLKLTLQSLNYTKNEIKSILPVINKETDNLIKKEKYASFENLLRLAMNHLDNN | -0.751
HMDFTPDQIARLDDIISRYKDKPGGLIPVLEEAQVALEYLPIGVQKRIAKGLNLPLSRVYGVVTFYSFFTM | -0.0122
HMDFVKGDTVVFIDAFMPDHLMTIHKVQGEGILLDGNHKFALAHLIRHASTVELNAKRRLSLTEQS | -2.42
HMDGASLLDIDGDGKVTPTIDGLLLMRWQFGTRGAALIGGISFPAGALRTTVNAIELHMRRLSETT | -0.699
HMDGDVAVKGGDGVLEVRLANAANVRVYNLAGRLMADYTGTELHMPLPKGVYMVVAGDNRTKVVV | -0.476
HMDGEINPYTGREYVTNSVRMHPRRIGYVQVYSRKDHKWTDMTEWAFLGEQERKKVLLGKAYEPPVYL | -1.91
HMDGEMRRKRILQLLSEQTKPLSGTALAKQFGVSRQVIVQDIALLKSKEPAIISTYRGYVLGR | -1.25
HMDGFAEFWSAYPKKVGKGAAEASWRKHRPPLQTVLDAVKRQAESDQWRKDGGQFIPNPATWLNQKRWEDD | -0.0375
HMDGIIIPDVSGKSYAEAVATLNEKGFKVEKGEDAGSSLAKDLVSYTNPAAGNRAKSGATISVFVSTGANA | 0.407
HMDGKTALQEIVASSGWSPPEYKVSESGPDHDKDFVAYAIVNGVAYPEGHGKSKREAEQVAARIAFEALSK | -0.0295
HMDGMRASDMVRAALAGAGKTQKELAEHMGWTPQNLSGRLKNNSLTFDELSKALHFAGYEVSMSDANGAG | 0.0394
HMDGNVPSVEGKPLSGAKYILETYGYKTGTVTEVNSEDVPAGIVISQNPARGTTLANGGSVNLQVSLG | 0.645
HMDGPGAGGRFLAEDLGTGKMTLEALQRHYVTLVYSRTGKYEETARRLEIDRRTVKKYLDEELLAELRET | 0.0914
HMDGQGIRSITPEYYLSDSATKMPDASSSGWKSVPDDYIDKHYYWVRSKILWDDGTYTTTTPVL | -0.17
HMDGRVQATAEKLRAALDRLARSSVGSPMIERQLTVAALAREARVGRNAIYANHRDILDELIRVRQQRRA | 0.155
HMDGTAKVAHMLVNELETFNRLKKHEIAYMLHIQPETLSRILNKLTRNGTIEIEKNSVVILNIQELKEIY | -1.95
HMDGVNRDKIEYRLDDLYYLKGSDAPYTGKVFEEWSGQQRVETNYIDGKLDGLSESWHENGQKASEVNY | 0.486
HMDHFLRRFQVEGLNLEKLLRLAAEREMDLLQVRRSGRRMTGLVAEKRLPELEELAAQGGWALRLGEY | -0.843
HMDHSSLIKKLRLERGLSQKKLAQGISQRSTLASFENNATKISYNILIQYLDRMNVTLEEYQFMLDGNNL | -2.27
HMDHWQSVNSALELLEVSRRTLYDYISRKKLQTKKEGKYRYVWIDDDVIEEIKTSKSAYIEINN | -2.21
HMDIAATTVKQKIRTLLADEDAARPLSDQKIADALAEDGIDVARRTVAKYREELGIEPSWARKR | 0.106
HMDIDLGAVEEQAVKGSGPGGQKMNKTSSGVLLRYRLGEELVLVKWTRERQHSLNRFLALRELVDEIEAR | 0.976
HMDIFFEKIFNILIGYNQNQENLISEKSILNFHLSHKSNSNFEYIPDEKTPKYIWKYLSNYNLLE | -0.439

Sequence | soluble fraction (log2)
HMDIFLPDVKGYDLIPSFRRHLPDIDVIAMTGYNTRALESAVRQQDVLFYMIKPFEASQLKEILEHLVK | -0.16
HMDIKEIIKNRRIELGLTLKEVATAVGVSEGTVSRWESGNITNMKRNKIAALAKTLQIPPTTI | -0.618
HMDIKKHISATLKREMEKRGLNFMEFSTELGIPRTTLQGYLKGTSSPQADSLEELADKLGISPAELVSG | -0.0134
HMDIMLLLYKNIKKRRLEIGMSQEELAQKTGYTSRSSIAKIEKGEVDLQLSKIKLFANALRVSQSELMG | -3.49
HMDIMTVGERVKKLAEKQGISLRELAKKAELSYNTVYSITRRGSERVAPDTISRLANALGVNVNELT | -0.263
HMDINEIILKVASEKKTFKTSDVLEALDNNYTKQHVSALISAMVKKGILVKAGSTAKSTYALPENASLL | -1.26
HMDINIETLNYYVGKAKIPLSELRISVKNIDLFLSGEKQPTFNQLSSIAKKLNIPTGLLLLDESIEV | -3
HMDIPGITAVKPQAAFYMFPKIDVKKFNIVNDEKFALDLLQDKKILIVQGSGFNWKQPDHFRVV | 0.177
HMDIRVAHVDDDMSFGEAFAQARSQVGPGGVFEWHGKLYGTYTAEEWASMSPAERSQYQQAVFN | -0.133
HMDIVLPFSFAKRHGVVLSERQGETELLYLKGLPVRVLAEARRVLRQEFTVRQVEQAVFDKALSESYQN | -0.957
HMDIYLDDINRKILHLLSQGVKTKSLRDYIDLSMSAIEKRKKHLKDLFLIEDGKDETLLSEARKKGF | -1.19
HMDKAGWLPARVRLADYPALKQLAWQVQGVDELTPREALGIYERNWRHLDEAALLPRERNLIDALRLAFG | -0.72
HMDKEQVTFIFRDIDIALRSLDYPIKDIKNTLNIIKSEFSNSKSTELNEQKINFENILKEAISILENND | -0.855
HMDKFKDVGARIREARKVQKLSQADLAERLQISTSHMSDIENGKKNIGLDIFMRLTEALQVSADWLL | -0.437
HMDKFTYVVKKEDEQYQIKDILRHNFTFSSRLRKKLKQNNSIFLNGAETVGWATPKEGDIISVRLP | -0.883
HMDKKEFGKRLKNLRIRNKMSQQAMADSLGYTSRSTINKIEEGINEMSYDKIVRLMELYGLSRPDLGLEPI | -0.439
HMDKKTMFNEALAKLVSYATAHDNLITMEDVKSFFNGLIDDDSQYKLIYDYLSINKIEIKGFT | -0.465
HMDKLEKRILDYLLQKSAIDGSTILKISHREMAMDLGTAREVVTRILKKLETGGFVRQGENYLEILK | -0.518
HMDKPIFTLRENEVLYWASMGKTYAEIATIVGISVRTVKFHMGNVVSKLGVSNARQAIRLGVELDLITPMQ | -2.03
HMDKSFYETFEKIGHGDFDKGLNHVWQHANDGNGTATLLLSKLFLEFGDLDNFEKYLNISAEQSNPVAMKI | -0.357
HMDKSNEVLMNHYRKQEINQAKKRLEEEKMSIIQVLQLTNKEVITTDELLEALYISKEQLLDEIINTTQ | -0.354
HMDKSPVLQLNRDVPAGQQISADDFRTVEIGADGAFRSVPSSDLNAMVGSYAKVRLIAGTLLAREALQSG | 0.0261
HMDKSRPVLRVGDSGDWVSKLQTALLEFGYRVAVDGVFGEHTKSAVVHFQNGRRLIADGVVGNLTWDALL | -2.4
HMDKWFPVSSDHKVQVGDYLRTADGLVKVEATHNEYGTFYGKIITAIHDDVVKGETYEYRIDDVQVLA | -0.00685
